Laboratory results as given in patent WO2014192202A1 (dated 2014).

Target: T1, human cardiac muscle-derived troponin I (human, UniProt P19429 2-210)
T1 construct: Immobilised on a CM5 chip at about 500 RU; also called troponin I derived from human myocardium; human myocardial troponin I
Assay: SPR (Biacore T100), troponin I immobilised on CM5 chip, as in Example 1

T1 sequence (P19429 2-210 limits assumed): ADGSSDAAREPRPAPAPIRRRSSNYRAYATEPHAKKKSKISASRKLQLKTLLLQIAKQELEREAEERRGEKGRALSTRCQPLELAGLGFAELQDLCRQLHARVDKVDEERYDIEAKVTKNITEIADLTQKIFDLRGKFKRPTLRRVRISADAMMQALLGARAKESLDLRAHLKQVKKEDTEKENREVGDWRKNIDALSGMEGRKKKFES

binding result: binds
B1: wild type scFv antibody fragment (SEQ ID NO: 62) (scFv)
scFv: DIVMTQSPSSLAMSVGQKVTMSCKSSQSLLNSSNQKNYLAWYQQKPGQSPKLLVYFASTRESGVPDRFIGSGSGTDFTLTISSVQAEDLADYFCQQHYSTPLTFGAGTKLELKRGGGGSGGGGSGGGGSEVKLEESGGGLVKPGGTLKLSCAASGFTFSSYAMSWVRQTPEKRLDWVATISSGGSYIFYPDSVKGRFTISRDNARNTLYLQMNSLRSEDTAMYYCARHHNPDKSGFAYWGQGTLVTVSAAAALEHHHHHH
notes: also called wild scFv antibody fragment
